For data set [1], the target named is T1, ComH-NTD-His6 (Helicobacter pylori 26695, UniProt O26055 20-169).
T1 sequence: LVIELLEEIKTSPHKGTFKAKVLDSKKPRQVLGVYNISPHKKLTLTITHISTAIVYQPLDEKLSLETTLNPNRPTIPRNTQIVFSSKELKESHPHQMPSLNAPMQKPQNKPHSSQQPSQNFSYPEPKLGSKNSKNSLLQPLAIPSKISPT
The experiment in a line: MST. To be noted: 10 mM MgCl2, 150 mM NaCl; EMSA: 10 mM Tris-HCl pH 7.5, 50 mM KCl, ~100 mM NaCl, 0.1 mM MgCl2, 1 mM DTT, 0.1 µg/µl BSA, on ice 30 min; MST and SV-AUC (20 °C): 50 mM Tris-HCl pH 7.4 ….

Data set [2] deals with T2, ComH-His6 (Helicobacter pylori 26695, UniProt O26055 20-479).
T2 sequence: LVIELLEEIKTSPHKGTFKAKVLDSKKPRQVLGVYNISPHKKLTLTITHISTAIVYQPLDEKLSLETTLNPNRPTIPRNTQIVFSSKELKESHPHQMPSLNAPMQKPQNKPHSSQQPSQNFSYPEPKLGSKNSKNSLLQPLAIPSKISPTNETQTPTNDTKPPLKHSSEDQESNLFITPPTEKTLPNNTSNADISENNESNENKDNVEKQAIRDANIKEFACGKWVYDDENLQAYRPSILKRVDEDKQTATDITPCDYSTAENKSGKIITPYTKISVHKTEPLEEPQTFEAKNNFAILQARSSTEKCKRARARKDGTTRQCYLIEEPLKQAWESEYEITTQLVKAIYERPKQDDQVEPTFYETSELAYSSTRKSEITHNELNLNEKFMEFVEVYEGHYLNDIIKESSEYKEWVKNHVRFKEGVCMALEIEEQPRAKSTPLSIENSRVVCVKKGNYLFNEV
The experiment in a line: MST. Particulars: 10 mM MgCl2, 150 mM NaCl; EMSA: 10 mM Tris-HCl pH 7.5, 50 mM KCl, ~100 mM NaCl, 0.1 mM MgCl2, 1 mM DTT, 0.1 µg/µl BSA, on ice 30 min; MST and SV-AUC (20 °C): 50 mM Tris-HCl pH 7.4 ….

Data set [3] concerns the target T3, ComH-CTD-His6 (Helicobacter pylori 26695, UniProt O26055 170-479).
T3 sequence: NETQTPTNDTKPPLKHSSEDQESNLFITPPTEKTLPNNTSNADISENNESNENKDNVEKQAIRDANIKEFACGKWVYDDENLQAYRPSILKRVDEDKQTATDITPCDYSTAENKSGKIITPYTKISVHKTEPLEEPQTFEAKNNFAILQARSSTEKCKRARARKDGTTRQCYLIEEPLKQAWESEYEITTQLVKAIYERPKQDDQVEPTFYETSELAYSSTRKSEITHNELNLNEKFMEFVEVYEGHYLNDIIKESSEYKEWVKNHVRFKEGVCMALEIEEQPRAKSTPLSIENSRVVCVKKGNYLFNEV
Description: MST. To be noted: 10 mM MgCl2, 150 mM NaCl; EMSA: 10 mM Tris-HCl pH 7.5, 50 mM KCl, ~100 mM NaCl, 0.1 mM MgCl2, 1 mM DTT, 0.1 µg/µl BSA, on ice 30 min; MST and SV-AUC (20 °C): 50 mM Tris-HCl pH 7.4 ….

Data set [4] has as its target T2, ComH-His6. Description: SV-AUC. Particulars: EMSA: 10 mM Tris-HCl pH 7.5, 50 mM KCl, ~100 mM NaCl, 0.1 mM MgCl2, 1 mM DTT, 0.1 µg/µl BSA, on ice 30 min; MST and SV-AUC (20 °C): 50 mM Tris-HCl pH 7.4 ….
Data set [5] deals with T2, ComH-His6. The experiment in a line: SV-AUC. To be noted: EMSA: 10 mM Tris-HCl pH 7.5, 50 mM KCl, ~100 mM NaCl, 0.1 mM MgCl2, 1 mM DTT, 0.1 µg/µl BSA, on ice 30 min; MST and SV-AUC (20 °C): 50 mM Tris-HCl pH 7.4 …. The source holds these as a separate data set.
Data set [6] concerns the target T2, ComH-His6. The experiment in a line: EMSA; 0.5-2 µM protein; EMSA: 10 mM Tris-HCl pH 7.5, 50 mM KCl, ~100 mM NaCl, 0.1 mM MgCl2, 1 mM DTT, 0.1 µg/µl BSA, on ice 30 min; MST and SV-AUC (20 °C): 50 mM Tris-HCl pH 7.4, 150 mM NaCl, 10 mM MgCl2, 0.05% Tween20; SPR: PBS + 0.005% Tween20, 25 °C. Particulars: protein: recombinant, tags: C-terminal His6.
Data set [7] concerns the target T3, ComH-CTD-His6. The description is as above. Particulars: protein: recombinant; tags: C-terminal His6; label: 5'-Cy5 on strand 1; blunt.
Data set [8] has as its target T1, ComH-NTD-His6. The experiment in a line: EMSA; basically no binding, 0.5-2 µM protein; EMSA: 10 mM Tris-HCl pH 7.5, 50 mM KCl, ~100 mM NaCl, 0.1 mM MgCl2, 1 mM DTT, 0.1 µg/µl BSA, on ice 30 min; MST and SV-AUC (20 °C): 50 mM Tris-HCl pH 7.4, 150 mM NaCl, 10 mM MgCl2, 0.05% Tween20; SPR: PBS + 0.005% Tween20, 25 °C. Particulars: protein: recombinant, tags: C-terminal His6.

For data set [9], the target named is T3, ComH-CTD-His6. The experiment in a line: EMSA; essentially no affinity, 0.5-2 µM protein; EMSA: 10 mM Tris-HCl pH 7.5, 50 mM KCl, ~100 mM NaCl, 0.1 mM MgCl2, 1 mM DTT, 0.1 µg/µl BSA, on ice 30 min; MST and SV-AUC (20 °C): 50 mM Tris-HCl pH 7.4, 150 mM NaCl, 10 mM MgCl2, 0.05% Tween20; SPR: PBS + 0.005% Tween20, 25 °C. Particulars: protein: recombinant; tags: C-terminal His6; label: 5'-Cy5.

Data set [10] deals with T2, ComH-His6. The experiment in a line: SPR; no satisfactory fit; EMSA: 10 mM Tris-HCl pH 7.5, 50 mM KCl, ~100 mM NaCl, 0.1 mM MgCl2, 1 mM DTT, 0.1 µg/µl BSA, on ice 30 min; MST and SV-AUC (20 °C): 50 mM Tris-HCl pH 7.4, 150 mM NaCl, 10 mM MgCl2, 0.05% Tween20; SPR: PBS + 0.005% Tween20, 25 °C. Particulars: protein: recombinant; tags: C-terminal His6; label: 5'-biotin on strand 1; blunt.

Where [11] appears, read: label: 5'-Cy5 on strand 1, blunt.

Consider 18 bp dsDNA-FAM, for which the dissociation constant Kd in data set [1] is more than 40000 nM; in [2], 50 nM; in data set [3] it was 3400 nM; in [4], 100 nM; in data set [5] it was 300 nM.

B1: 18 bp dsDNA (Cy5-PNK1 + cPNK1) (dsDNA)
DNA 1: TAGCATCGATCAGTCCTC
DNA 2: GAGGACTGATCGATGCTA
Turning to B1, the binding result in data set [6] (setting [11]) is “binds”; in [7] it was “binds”; in [8] (setting [11]), “no binding”.

On to TAGCATCGATCAGTCCTC (ssDNA) [18-mer ssDNA (Cy5-PNK1)], for which the binding result in [9], in data set [6] (label: 5'-Cy5) and in [8] (label: 5'-Cy5) was “no binding” each time.

B2: 50 bp dsDNA (Op249 + Op250) (dsDNA)
DNA 1: GTAGTGCTGTAGGAGAATATACGGGCTGCTCGTGTTGACAAGTACTGATG
DNA 2: CATCAGTACTTGTCAACACGAGCAGCCCGTATATTCTCCTACAGCACTAC
In the case of B2, the binding result in data set [10] is “binds”.

For the origin of these results see PMC6877725, “Identification of the periplasmic DNA receptor for natural transformation of Helicobacter pylori”.
